Assay results published in PMC5430920 (Scientific Reports, 2017).

Target: the molecule itself
Assay: SEC

B1: Mycobacterium tuberculosis orotate phosphoribosyltransferase (enzyme)
chain: MAGPDRAELAELVRRLSVVHGRVTLSSGREADYYVDLRRATLHHRASALIGRLMRELTADWDYSVVGGLTLGADPVATAIMHAPGRPIDAFVVRKSAKAHGMQRLIEGSEVTGQRVLVVEDTSTTGNSALTAVHAVQDVGGEVVGVATVVDRATGAAEAIEAEGLRYRSVLGLADLGLD
notes: also called MtOPRT; M. tuberculosis OPRTase
- stoichiometry N: 2
